Assay [1] addresses T1, circularly permuted cyno TfR apical domain (cynomolgus monkey).
T1 construct: same design as the human construct; also called cyTfR Apical Domain; cynomolgus TfR apical domain
T1 chain: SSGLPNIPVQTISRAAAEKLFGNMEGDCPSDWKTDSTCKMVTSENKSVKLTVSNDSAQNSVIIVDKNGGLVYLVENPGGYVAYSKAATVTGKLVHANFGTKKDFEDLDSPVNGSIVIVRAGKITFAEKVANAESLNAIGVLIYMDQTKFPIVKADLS
The assay is described as follows: SPR, supernatant, anti-Fab capture. The protocol:
(§1) Clones were expressed in HEK293 cells. Supernatants were captured for SPR by GE Healthcare anti-human Fab capture kit and the affinity to human and cyno TfR apical domain was measured (Table 30). The clones in Table 30 were bivalent and each TfR-binding Fc polypeptide also contained P329G and LALA mutations.
On the technique in general: SPR reads the build-up and loss of mass on a sensor chip optically.

In assay [2] the target is T2, circularly permuted human TfR apical domain (human).
T2 construct: TfR residues 326-379 stand N-terminal to 194-296, loop 297-325 deleted; also called huTfR Apical Domain
T2 chain: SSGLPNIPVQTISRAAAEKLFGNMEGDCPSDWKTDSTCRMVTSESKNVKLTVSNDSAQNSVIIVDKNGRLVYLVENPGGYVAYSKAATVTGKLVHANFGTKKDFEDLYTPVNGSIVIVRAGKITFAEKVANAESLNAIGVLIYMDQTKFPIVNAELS
In words: SPR, supernatant, anti-Fab capture. The protocol: as §1

This note sets out measurements from patent US20250145729A1 (DENALI THERAPEUTICS, published 2025).

B1: 42.8.174 (Fc fusion)
chain: APEAAGGPSVFLFPPKPKDTLMISRTPEVTCVVVDVSHEDPEVKFNWYVDGVEVHNAKTKPREEQYNSTYRVVSVLTVLHQDWLNGKEYKCKVSNKALGAPIEKTISKAKGQPREPQVYTLPPSRDELTKNQVSLTCLVKGFYPSDIAVEWFYDDQKLSNYKTTPPVLDSDGSFFLYSKLTVDKSRWQQGNLFACEVMHEALHNHYTYKLLSLSPGK
notes: bivalent; P329G+LALA
By Kd is commonly meant the concentration at which binding is half-saturated. For B1, the values for the Kd in assay [1] and in assay [2] were 7.78 µM and 0.726 µM, respectively.

B2: 42.8.189 (Fc fusion)
chain: APEAAGGPSVFLFPPKPKDTLMISRTPEVTCVVVDVSHEDPEVKFNWYVDGVEVHNAKTKPREEQYNSTYRVVSVLTVLHQDWLNGKEYKCKVSNKALGAPIEKTISKAKGQPREPQVYTLPPSRDELTKNQVSLTCLVKGFYPSDIAVEWFYEGSKESNYKTTPPVLDSDGSFFLYSKLTVDKSRWQQGNLFACEVMHEALHNHYTYKLLSLSPGK
notes: bivalent; P329G+LALA
As for B2, the Kd came out at 13.5 µM in assay [1] and 1.1 µM in assay [2].

B3: 42.8.184 (Fc fusion)
chain: APEAAGGPSVFLFPPKPKDTLMISRTPEVTCVVVDVSHEDPEVKFNWYVDGVEVHNAKTKPREEQYNSTYRVVSVLTVLHQDWLNGKEYKCKVSNKALGAPIEKTISKAKGQPREPQVYTLPPSRDELTKNQVSLTCLVKGFYPSDIAVEWFYEGQKLNNYKTTPPVLDSDGSFFLYSKLTVDKSRWQQGNLFACEVMHEALHNHYTYKLLSLSPGK
notes: bivalent; P329G+LALA
Take B3: the results for the Kd in assay [1] and in assay [2] were 17 µM and 1.68 µM, respectively.

B4: 42.8.197 (Fc fusion)
chain: APEAAGGPSVFLFPPKPKDTLMISRTPEVTCVVVDVSHEDPEVKFNWYVDGVEVHNAKTKPREEQYNSTYRVVSVLTVLHQDWLNGKEYKCKVSNKALGAPIEKTISKAKGQPREPQVYTLPPSRDELTKNQVSLTCLVKGFYPSDIAVEWFYEAQKLTNYKTTPPVLDSDGSFFLYSKLTVDKSRWQQGNLFACEVMHEALHNHYTYKLLSLSPGK
notes: bivalent; P329G+LALA
Take B4: the Kd in assay [1] is 11.4 µM; in assay [2] it was 0.755 µM.

B5: 42.8.175 (Fc fusion)
chain: APEAAGGPSVFLFPPKPKDTLMISRTPEVTCVVVDVSHEDPEVKFNWYVDGVEVHNAKTKPREEQYNSTYRVVSVLTVLHQDWLNGKEYKCKVSNKALGAPIEKTISKAKGQPREPQVYTLPPSRDELTKNQVSLTCLVKGFYPSDIAVEWFYDDSKENNYKTTPPVLDSDGSFFLYSKLTVDKSRWQQGNLFACEVMHEALHNHYTYKLLSLSPGK
notes: bivalent; P329G+LALA
For the molecule B5, the figures for the Kd in assay [1] and in assay [2] were 15.8 µM and 1.05 µM, respectively.

B6: 42.8.192 (Fc fusion)
chain: APEAAGGPSVFLFPPKPKDTLMISRTPEVTCVVVDVSHEDPEVKFNWYVDGVEVHNAKTKPREEQYNSTYRVVSVLTVLHQDWLNGKEYKCKVSNKALGAPIEKTISKAKGQPREPQVYTLPPSRDELTKNQVSLTCLVKGFYPSDIAVEWFYEGSKLSNYKTTPPVLDSDGSFFLYSKLTVDKSRWQQGNLFACEVMHEALHNHYTYKLLSLSPGK
notes: bivalent; P329G+LALA
B6: the Kd turned out to be 11.3 µM in assay [1] and 0.761 µM in assay [2].

B7: 42.8.183 (Fc fusion)
chain: APEAAGGPSVFLFPPKPKDTLMISRTPEVTCVVVDVSHEDPEVKFNWYVDGVEVHNAKTKPREEQYNSTYRVVSVLTVLHQDWLNGKEYKCKVSNKALGAPIEKTISKAKGQPREPQVYTLPPSRDELTKNQVSLTCLVKGFYPSDIAVEWFYEGQKESNYKTTPPVLDSDGSFFLYSKLTVDKSRWQQGNLFACEVMHEALHNHYTYKLLSLSPGK
notes: bivalent; P329G+LALA
As for B7, the Kd in assay [1] came out at 15.1 µM; in assay [2], 2.33 µM.

B8: 42.8.187 (Fc fusion)
chain: APEAAGGPSVFLFPPKPKDTLMISRTPEVTCVVVDVSHEDPEVKFNWYVDGVEVHNAKTKPREEQYNSTYRVVSVLTVLHQDWLNGKEYKCKVSNKALGAPIEKTISKAKGQPREPQVYTLPPSRDELTKNQVSLTCLVKGFYPSDIAVEWFYEGSKENNYKTTPPVLDSDGSFFLYSKLTVDKSRWQQGNLFACEVMHEALHNHYTYKLLSLSPGK
notes: bivalent; P329G+LALA
For the molecule B8, the Kd in assay [1] is 13.4 µM; in assay [2], 1.6 µM.

B9: 42.8.181 (Fc fusion)
chain: APEAAGGPSVFLFPPKPKDTLMISRTPEVTCVVVDVSHEDPEVKFNWYVDGVEVHNAKTKPREEQYNSTYRVVSVLTVLHQDWLNGKEYKCKVSNKALGAPIEKTISKAKGQPREPQVYTLPPSRDELTKNQVSLTCLVKGFYPSDIAVEWFYEGQKENNYKTTPPVLDSDGSFFLYSKLTVDKSRWQQGNLFACEVMHEALHNHYTYKLLSLSPGK
notes: bivalent; P329G+LALA
For B9, the Kd in assay [1] is 12.1 µM; in assay [2], 2.78 µM.

B10: 42.8.201 (Fc fusion)
chain: APEAAGGPSVFLFPPKPKDTLMISRTPEVTCVVVDVSHEDPEVKFNWYVDGVEVHNAKTKPREEQYNSTYRVVSVLTVLHQDWLNGKEYKCKVSNKALGAPIEKTISKAKGQPREPQVYTLPPSRDELTKNQVSLTCLVKGFYPSDIAVEWFYEASKESNYKTTPPVLDSDGSFFLYSKLTVDKSRWQQGNLFACEVMHEALHNHYTYKLLSLSPGK
notes: bivalent; P329G+LALA
As to B10, the Kd in assay [1] stood at 4.91 µM; in assay [2], 0.647 µM.

B11: 42.8.207 (Fc fusion)
chain: APEAAGGPSVFLFPPKPKDTLMISRTPEVTCVVVDVSHEDPEVKFNWYVDGVEVHNAKTKPREEQYNSTYRVVSVLTVLHQDWLNGKEYKCKVSNKALGAPIEKTISKAKGQPREPQVYTLPPSRDELTKNQVSLTCLVKGFYPSDIAVEWFYEDQKESNYKTTPPVLDSDGSFFLYSKLTVDKSRWQQGNLFACEVMHEALHNHYTYKLLSLSPGK
notes: bivalent; P329G+LALA
For B11, the Kd amounted to 13.8 µM in assay [1] and 1.2 µM in assay [2].

B12: 42.8.194 (Fc fusion)
chain: APEAAGGPSVFLFPPKPKDTLMISRTPEVTCVVVDVSHEDPEVKFNWYVDGVEVHNAKTKPREEQYNSTYRVVSVLTVLHQDWLNGKEYKCKVSNKALGAPIEKTISKAKGQPREPQVYTLPPSRDELTKNQVSLTCLVKGFYPSDIAVEWFYEAQKETNYKTTPPVLDSDGSFFLYSKLTVDKSRWQQGNLFACEVMHEALHNHYTYKLLSLSPGK
notes: bivalent; P329G+LALA
For B12, the Kd in assay [1] is 11.8 µM; in assay [2], 1.23 µM.

B13: 42.8.195 (Fc fusion)
chain: APEAAGGPSVFLFPPKPKDTLMISRTPEVTCVVVDVSHEDPEVKFNWYVDGVEVHNAKTKPREEQYNSTYRVVSVLTVLHQDWLNGKEYKCKVSNKALGAPIEKTISKAKGQPREPQVYTLPPSRDELTKNQVSLTCLVKGFYPSDIAVEWFYEAQKESNYKTTPPVLDSDGSFFLYSKLTVDKSRWQQGNLFACEVMHEALHNHYTYKLLSLSPGK
notes: bivalent; P329G+LALA
As to B13, the Kd amounted to 13.3 µM in assay [1] and 1.23 µM in assay [2].

B14: 42.8.182 (Fc fusion)
chain: APEAAGGPSVFLFPPKPKDTLMISRTPEVTCVVVDVSHEDPEVKFNWYVDGVEVHNAKTKPREEQYNSTYRVVSVLTVLHQDWLNGKEYKCKVSNKALGAPIEKTISKAKGQPREPQVYTLPPSRDELTKNQVSLTCLVKGFYPSDIAVEWFYEGQKETNYKTTPPVLDSDGSFFLYSKLTVDKSRWQQGNLFACEVMHEALHNHYTYKLLSLSPGK
notes: bivalent; P329G+LALA
For the molecule B14, the values for the Kd in assay [1] and in assay [2] were 14.4 µM and 2.29 µM, respectively.

B15: 42.8.202 (Fc fusion)
chain: APEAAGGPSVFLFPPKPKDTLMISRTPEVTCVVVDVSHEDPEVKFNWYVDGVEVHNAKTKPREEQYNSTYRVVSVLTVLHQDWLNGKEYKCKVSNKALGAPIEKTISKAKGQPREPQVYTLPPSRDELTKNQVSLTCLVKGFYPSDIAVEWFYEASKLNNYKTTPPVLDSDGSFFLYSKLTVDKSRWQQGNLFACEVMHEALHNHYTYKLLSLSPGK
notes: bivalent; P329G+LALA
Turning to B15, the results for the Kd in assay [1] and in assay [2] were 6.27 µM and 0.505 µM, respectively.

B16: 42.8.208 (Fc fusion)
chain: APEAAGGPSVFLFPPKPKDTLMISRTPEVTCVVVDVSHEDPEVKFNWYVDGVEVHNAKTKPREEQYNSTYRVVSVLTVLHQDWLNGKEYKCKVSNKALGAPIEKTISKAKGQPREPQVYTLPPSRDELTKNQVSLTCLVKGFYPSDIAVEWFYEDQKLNNYKTTPPVLDSDGSFFLYSKLTVDKSRWQQGNLFACEVMHEALHNHYTYKLLSLSPGK
notes: bivalent; P329G+LALA
On to B16, for which the Kd was found to be 7.41 µM in assay [1] and 0.446 µM in assay [2].

B17: 42.8.199 (Fc fusion)
chain: APEAAGGPSVFLFPPKPKDTLMISRTPEVTCVVVDVSHEDPEVKFNWYVDGVEVHNAKTKPREEQYNSTYRVVSVLTVLHQDWLNGKEYKCKVSNKALGAPIEKTISKAKGQPREPQVYTLPPSRDELTKNQVSLTCLVKGFYPSDIAVEWFYEASKENNYKTTPPVLDSDGSFFLYSKLTVDKSRWQQGNLFACEVMHEALHNHYTYKLLSLSPGK
notes: bivalent; P329G+LALA
Regarding B17, the results for the Kd in assay [1] and in assay [2] were 8.05 µM and 0.869 µM, respectively.

B18: 42.8.185 (Fc fusion)
chain: APEAAGGPSVFLFPPKPKDTLMISRTPEVTCVVVDVSHEDPEVKFNWYVDGVEVHNAKTKPREEQYNSTYRVVSVLTVLHQDWLNGKEYKCKVSNKALGAPIEKTISKAKGQPREPQVYTLPPSRDELTKNQVSLTCLVKGFYPSDIAVEWFYEGQKLTNYKTTPPVLDSDGSFFLYSKLTVDKSRWQQGNLFACEVMHEALHNHYTYKLLSLSPGK
notes: bivalent; P329G+LALA
Take B18: the dissociation constant (Kd) in assay [1] turned out to be 13.3 µM; in assay [2], 1.85 µM.

B19: 42.8.204 (Fc fusion)
chain: APEAAGGPSVFLFPPKPKDTLMISRTPEVTCVVVDVSHEDPEVKFNWYVDGVEVHNAKTKPREEQYNSTYRVVSVLTVLHQDWLNGKEYKCKVSNKALGAPIEKTISKAKGQPREPQVYTLPPSRDELTKNQVSLTCLVKGFYPSDIAVEWFYEASKLSNYKTTPPVLDSDGSFFLYSKLTVDKSRWQQGNLFACEVMHEALHNHYTYKLLSLSPGK
notes: bivalent; P329G+LALA
Consider B19, for which the results for the Kd in assay [1] and in assay [2] were 4.63 µM and 0.436 µM, respectively.
